According to patent US20140234868A1, “USE FOR GLYCOLIPOPROTEIN GINTONIN, ISOLATED AND IDENTIFIED FROM GINSENG, AS A NATURAL MEDICAL-PLANT DERIVED LIGAND” (KONKUK UNIVERSITY INDUSTRIAL COOPERATION CORP., priority 2011, published 2014):

Experiments:
HUVECs [1] = assay: HUVEC migration, Boyden chamber; format: cell-based, human; conditions: 70~80 min, 37° C.
Method: To measure the effect of gintonin on cell migration, a Boyden chamber (Neuro Probe Inc., Gaithersburg, Md., USA) assay was employed (Kim et al. Biol Pharm Bull 30: 1674-1679, 2007; Lee et al. Am J Physiol Cell Physiol 278:C612-C618, 2000).
In the Boyden chamber (48 wells) of two compartments separated by a collagen-coated polycarbonate microporous membrane (8-μm pores), gintonin in M199 (0.1% BSA contained) was placed onto the wells of lower compartment while a HUVEC suspension was added to the wells of the upper compartment (5×10^4 cells/well). During incubation at 37° C. for 70˜80 min, the cells were allowed to migrate through the membrane into the lower compartment. Then, the chamber was disassembled, and the cells on the membrane was fixed and stained with Diff Quik (Sysmex, Kobe, Japan), and mounted on a slide.

[2] = test system: mouse EAT (Ehrlich Ascites Tumor); conditions: mouse EAT cells; PLC-coupled pathway; cited from earlier work
mice = assay: Passive avoidance test, scopolamine-caused long-term memory impairment; format: in vivo, mouse
Method: ICR male mice (25-28 g), purchased from Oriental Bio (Seoul, Korea), were bred according to the guideline of the Institutional Animal Care and Use Committee of Konkuk University, and subjected to passive avoidance test to examine memory maintenance impairment and the protection of gintonin against memory impairment according to the method of Yang et al. (Yang et al., Biol Pharm Bull 32, 1710-1715, 2009).
A passive avoidance test was performed in a training chamber which was divided into two compartments (20×20×20 cm in size, each) separated by an automatically moving guillotine door (5×5 cm): one compartment was lighted while the other remained dark where metal rods installed in a lattice pattern on the bottom so as to deliver an electrical foot shock (Gemini Avoidance System, San Diego, USA).
For an acquisition trial, a mouse was first placed in the lighted compartment, facing away from the dark compartment and allowed to explore for 10 sec. After 10 sec, the guillotine door was opened and the mouse was allowed to explore freely. When the mouse entered the dark compartment with all four paws according to its habit, the guillotine door was closed, and a footshock (0.5 mA, 3 sec duration) was delivered. The latency time to enter the dark compartment was recorded (from the time the door was lifted). 120 min before experimentation, gintonin (25, 50, 100 mg/kg, p.o) was administered while tacrine (10 mg/kg, p.o) was used as a positive control. Memory impairment was induced by injecting scopolamine (0.9 mg/kg, i.p.) 30 min after gintonin or tacrine administration (Araujo et al., Prog Neuropsycopharmcol Biol Psychiatry 29, 411-422, 2005). For a negative control, a physiological saline was used.
24 Hours after the learning session, an experiment was performed without injecting gintonin. The mouse was positioned again in the lighted compartment. After 10 sec of acclimation, the latency time to enter the dark compartment was recorded (from the time the door was lifted).

[3] = test system: GPR87, GPR40, GPR41, GPR43 and GPR120; assay: Intracellular free Ca2+ in B103 cells expressing other orphan GPCRs and fatty acid receptors; format: cell-based; conditions: B103 cells expressing the other receptors (GPR87, GPR40, GPR41, GPR43, GPR120)
Excerpt: Optionally, the method may further comprise (8) pre-treating the suspended B103 cells with LPA receptor antagonists and LPA receptor-mediated signaling-relevant drugs (e.g., pertussis toxin, PLC inhibitors, IP3 receptor antagonists) to examine whether the cells decrease or increase in intracellular free Ca^2+, prior to treatment with gintonin; (9) performing site-directed mutagenesis to identify an amino acid of LPA receptors with which gintonin interact to activate the LPA; and (10) examining whether gintonin activates orphan GPCRs including GPR35 and GPR87, and free fatty acid GPCRs including GPR40, GPR41, GPR43 and GPR120, all known for activation by LPA.
In addition, GPR35 (Oka et al., Biochem Biophys Res Commun. 395, 232-237, 2010) and GPR87 (Tabata et al., Biochem Biophys Res Commun. 363, 861-866, 2007), both known as orphan GPCRs reacting with LPA, and GPR40, GPR41, GPR43 and GPR120 (Hirasawa et al., Biol Pharm Bull. 31, 1847-1851, 2008), all known as fatty acid receptors reacting with free fatty acids, were expressed in B103 cells when gintonin activity was tested.

HUVECs [4] = assay: HUVEC proliferation, BrDU incorporation ELISA; format: cell-based, human; conditions: gintonin 24 hrs
Method: In this Example, gintonin was examined for effect on cell growth. In this regard, HUVECs (human umbilical vein endothelial cells) were cultured with BrDU in the presence of gintonin, and analyzed for relative BrDU content by BrDU assay (Won et al., J Pharmacol Sci 108, 372-379, 2008; Chen et al., Cell Physiol Biochem 22, 307-314, 2008) using a BrDU cell proliferation ELISA kit (Roche, Germany).
Briefly, cells were seeded at a density of 3×10^3 cells/well into 96-well plates one day before treatment with gintonin. After 24 hrs of incubation, the cells were cultured for 6 hrs in a fresh M199 medium supplemented with […]. Again, the medium was changed to a fresh M199 medium supplemented with […], after which the cells were incubated with gintonin for 24 hrs. For an additional 24 hrs, the cells were incubated with a BrDU labeling reagent. After medium was removed, the cells were washed with 10% FBS-supplemented M199, fixed with a fixative, and quantitatively analyzed for relative intracellular BrDU content using an anti-BrDU-peroxidase antibody and a luminometer (Veritas, Turner Biosystems, USA).

B1: gintonin: ginseng-derived glycolipoprotein; structural protein of ginseng major latex-like protein (MLP151) and ribonuclease-like storage proteins; crude gintonin used in tests (protein)
chain 1: MGLTGKLICQTGIKSDGDVFHELFGTRPHHVPNITPANIQGCDLHEGEFGKVGSVVIWNYSIDGNAMIAKEEIVAIDEEDKSVTFKVVEGHLFEEFKSIVFSVHVDTKGEDNLVTWSIDYEKLNESVKDPTSYLDFLLSVTRDIEAHHLPK
chain 2: RSDYPWAMFALRLQWPAGFCEVNNACDTKSLLNTFTIHGLYPYNAKGTPALYCDGTAFDVNSVSDFLAEMHLAWPSHETNTEDIQFWEHEWKKHGRCSEALLKQTDYFRTALAFRKAFDIVGLLNQEGIYPNNDLYRPKMIKEAIKKHLNAVPEIDFTKNENSEYVLTDINVCVNQQATRFVDCPTDDATDDYRLKFVRLPSKMKFADPRTNSII
In the case of B1, the cell migration (HUVECs [1]) is given as “promoted cell migration in a concentration-dependent manner”, the “transient increase in cytoplasmic free Ca2+ level” value [2] is given as “induces a transient increase in cytoplasmic free Ca^2+ level” and the latency time (mice; gintonin 25 mg/kg p.o. + scopolamine 0.9 mg/kg i.p.) is given as 78.24 ± 7.83 s. The latency time (mice; gintonin 50 mg/kg p.o. + scopolamine 0.9 mg/kg i.p.) was 169.22 ± 12.97 s, the latency time (mice; gintonin 100 mg/kg p.o. + scopolamine 0.9 mg/kg i.p.) was 183.43 ± 10.89 s and the “increase of intracellular calcium level” value [3] was “not act on the other receptors”. For the same molecule, the “incorporation of Br-DU into DNA” value (HUVECs [4]) was “increase the incorporation of Br-DU into the DNA of HUVECs in a concentration-dependent manner”.
